# Patent publication US20040002144A1
# Changes are numbered by the printed parent chain. In names and notes the source's numbering stands.
# B1: Ser-type MTG (mutant in which Asp1 has been removed, starts with Ser2), P81453 78-407 (enzyme)
# chain: SDDRVTPPAEPLDRMPDPYRPSYGRAETVVNNYIRKWQQVYSHRDGRKQQMTEEQREWLSYGCVGVTWVNSGQYPTNRLAFASFDEDRFKNELKNGRPRSGETRAEFEGRVAKESFDEEKGFQRAREVASVMNRALENAHDESAYLDNLKKELANGNDALRNEDARSPFYSALRNTPSFKERNGGNHDPSRMKAVIYSKHFWSGQDRSSSADKRKYGDPDAFRPAPGTGLVDMSRDRNIPRSPTSPGEGFVNFDYGWFGAQTEADADKTVWTHGNHYHAPNGSLGAMHVYESKFRNWSEGYSDFDRGAYVITFIPKSWNTAPDKVKQGWP
# B2: transglutaminase derived from Streptoverticillium mobaraense (MTG), wild type, P81453 77-407 (enzyme)
# chain: DSDDRVTPPAEPLDRMPDPYRPSYGRAETVVNNYIRKWQQVYSHRDGRKQQMTEEQREWLSYGCVGVTWVNSGQYPTNRLAFASFDEDRFKNELKNGRPRSGETRAEFEGRVAKESFDEEKGFQRAREVASVMNRALENAHDESAYLDNLKKELANGNDALRNEDARSPFYSALRNTPSFKERNGGNHDPSRMKAVIYSKHFWSGQDRSSSADKRKYGDPDAFRPAPGTGLVDMSRDRNIPRSPTSPGEGFVNFDYGWFGAQTEADADKTVWTHGNHYHAPNGSLGAMHVYESKFRNWSEGYSDFDRGAYVITFIPKSWNTAPDKVKQGWP
# B3: S2Y mutant MTG (Ser2 replaced with Tyr, in Met type MTG), P81453 79-407 (enzyme)
# chain: MDYDDRVTPPAEPLDRMPDPYRPSYGRAETVVNNYIRKWQQVYSHRDGRKQQMTEEQREWLSYGCVGVTWVNSGQYPTNRLAFASFDEDRFKNELKNGRPRSGETRAEFEGRVAKESFDEEKGFQRAREVASVMNRALENAHDESAYLDNLKKELANGNDALRNEDARSPFYSALRNTPSFKERNGGNHDPSRMKAVIYSKHFWSGQDRSSSADKRKYGDPDAFRPAPGTGLVDMSRDRNIPRSPTSPGEGFVNFDYGWFGAQTEADADKTVWTHGNHYHAPNGSLGAMHVYESKFRNWSEGYSDFDRGAYVITFIPKSWNTAPDKVKQGWP
# B4: S2D mutant MTG (Ser2 replaced with Asp, in Met type MTG), P81453 79-407 (enzyme)
# chain: B3 chain with Y3D
# B5: S2R mutant MTG (Ser2 replaced with Arg, in Met type MTG), P81453 79-407 (enzyme)
# chain: B3 chain with Y3R
# Target: casein
# Test: cell-based or functional assay
row,time required for the gelation of casein,Binder
1,85 min,B1
2,90 min,B2
3,100 min,B3
4,95 min,B4
5,85 min,B5
